In the assay the target is native PRC2 purified from HeLa cells expressing FLAG-tagged EZH2 (not stated | human (endogenous in HeLa)) (UniProt Q15910).
Sequence of native PRC2 purified from HeLa cells expressing FLAG-tagged EZH2 (not stated | human (endogenous in HeLa)) (Q15910 whole entry, chain 1 of 4): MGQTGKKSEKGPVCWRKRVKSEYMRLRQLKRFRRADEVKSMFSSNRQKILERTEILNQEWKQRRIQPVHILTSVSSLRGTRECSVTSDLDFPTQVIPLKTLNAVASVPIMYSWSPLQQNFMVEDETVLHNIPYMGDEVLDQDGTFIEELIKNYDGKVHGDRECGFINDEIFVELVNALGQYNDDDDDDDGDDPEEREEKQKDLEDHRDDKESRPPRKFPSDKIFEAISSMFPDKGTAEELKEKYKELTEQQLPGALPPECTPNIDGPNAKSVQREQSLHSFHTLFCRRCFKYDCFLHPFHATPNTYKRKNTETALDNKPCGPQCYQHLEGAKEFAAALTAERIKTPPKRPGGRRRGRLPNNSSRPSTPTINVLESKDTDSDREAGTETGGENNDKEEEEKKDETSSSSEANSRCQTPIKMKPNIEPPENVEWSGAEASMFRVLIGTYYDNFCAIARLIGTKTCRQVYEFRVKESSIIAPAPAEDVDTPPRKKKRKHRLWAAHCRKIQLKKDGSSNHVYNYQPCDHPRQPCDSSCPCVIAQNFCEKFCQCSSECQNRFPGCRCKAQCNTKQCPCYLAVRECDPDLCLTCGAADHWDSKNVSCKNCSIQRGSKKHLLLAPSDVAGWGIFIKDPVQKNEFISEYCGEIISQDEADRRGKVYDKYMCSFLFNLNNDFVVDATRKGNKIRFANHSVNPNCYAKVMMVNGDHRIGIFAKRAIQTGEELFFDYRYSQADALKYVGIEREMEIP
Sequence of native PRC2 purified from HeLa cells expressing FLAG-tagged EZH2 (not stated | human (endogenous in HeLa)) (Q15022 whole entry, chain 2 of 4, further chain): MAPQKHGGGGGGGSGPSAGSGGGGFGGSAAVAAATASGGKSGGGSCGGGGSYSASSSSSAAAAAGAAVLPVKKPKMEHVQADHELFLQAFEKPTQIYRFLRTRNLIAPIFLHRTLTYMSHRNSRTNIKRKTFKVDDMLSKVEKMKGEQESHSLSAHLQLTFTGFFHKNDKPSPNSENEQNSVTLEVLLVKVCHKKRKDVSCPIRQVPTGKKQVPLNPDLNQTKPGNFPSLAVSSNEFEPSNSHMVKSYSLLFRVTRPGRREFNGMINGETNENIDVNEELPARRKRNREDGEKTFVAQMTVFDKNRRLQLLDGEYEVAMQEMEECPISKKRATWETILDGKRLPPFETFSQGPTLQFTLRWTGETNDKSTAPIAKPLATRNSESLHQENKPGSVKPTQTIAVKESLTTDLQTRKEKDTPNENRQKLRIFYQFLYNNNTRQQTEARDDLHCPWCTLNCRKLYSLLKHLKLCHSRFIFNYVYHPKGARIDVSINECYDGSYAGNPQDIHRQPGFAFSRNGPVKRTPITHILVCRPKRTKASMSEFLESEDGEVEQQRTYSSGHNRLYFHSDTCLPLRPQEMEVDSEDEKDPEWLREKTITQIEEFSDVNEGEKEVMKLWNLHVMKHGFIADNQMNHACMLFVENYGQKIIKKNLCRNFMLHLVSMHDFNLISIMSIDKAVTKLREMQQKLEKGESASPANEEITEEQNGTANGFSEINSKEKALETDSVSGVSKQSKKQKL
Sequence of native PRC2 purified from HeLa cells expressing FLAG-tagged EZH2 (not stated | human (endogenous in HeLa)) (O75530 2-441, chain 3 of 4, further chain): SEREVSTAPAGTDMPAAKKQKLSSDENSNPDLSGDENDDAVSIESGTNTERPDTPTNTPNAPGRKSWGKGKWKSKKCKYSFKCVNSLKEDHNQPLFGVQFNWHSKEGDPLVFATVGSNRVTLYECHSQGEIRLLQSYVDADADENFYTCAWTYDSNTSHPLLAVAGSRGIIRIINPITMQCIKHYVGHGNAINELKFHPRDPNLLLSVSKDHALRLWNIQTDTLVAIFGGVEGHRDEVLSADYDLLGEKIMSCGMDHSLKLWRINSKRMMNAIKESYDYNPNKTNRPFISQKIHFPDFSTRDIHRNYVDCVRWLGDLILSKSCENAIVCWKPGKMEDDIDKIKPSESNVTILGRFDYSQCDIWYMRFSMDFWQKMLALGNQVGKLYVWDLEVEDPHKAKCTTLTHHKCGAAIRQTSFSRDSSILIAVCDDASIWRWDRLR
Sequence of native PRC2 purified from HeLa cells expressing FLAG-tagged EZH2 (not stated | human (endogenous in HeLa)) (Q09028 2-425, chain 4 of 4, further chain): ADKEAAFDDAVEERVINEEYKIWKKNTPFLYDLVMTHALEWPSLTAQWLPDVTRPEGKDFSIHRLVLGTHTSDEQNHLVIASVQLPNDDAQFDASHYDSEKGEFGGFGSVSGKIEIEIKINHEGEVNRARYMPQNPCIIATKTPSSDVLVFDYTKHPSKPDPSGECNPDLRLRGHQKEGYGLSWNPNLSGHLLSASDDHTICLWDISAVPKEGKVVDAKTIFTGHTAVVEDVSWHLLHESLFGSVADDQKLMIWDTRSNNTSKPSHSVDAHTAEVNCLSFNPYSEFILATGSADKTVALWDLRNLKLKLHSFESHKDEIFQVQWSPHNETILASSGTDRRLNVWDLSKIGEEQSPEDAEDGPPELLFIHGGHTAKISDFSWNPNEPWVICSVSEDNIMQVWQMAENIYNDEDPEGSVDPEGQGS

Sequence of full length recombinant EZHIP WT, 6x-His-tagged (natural protein) (Q86X51 whole entry): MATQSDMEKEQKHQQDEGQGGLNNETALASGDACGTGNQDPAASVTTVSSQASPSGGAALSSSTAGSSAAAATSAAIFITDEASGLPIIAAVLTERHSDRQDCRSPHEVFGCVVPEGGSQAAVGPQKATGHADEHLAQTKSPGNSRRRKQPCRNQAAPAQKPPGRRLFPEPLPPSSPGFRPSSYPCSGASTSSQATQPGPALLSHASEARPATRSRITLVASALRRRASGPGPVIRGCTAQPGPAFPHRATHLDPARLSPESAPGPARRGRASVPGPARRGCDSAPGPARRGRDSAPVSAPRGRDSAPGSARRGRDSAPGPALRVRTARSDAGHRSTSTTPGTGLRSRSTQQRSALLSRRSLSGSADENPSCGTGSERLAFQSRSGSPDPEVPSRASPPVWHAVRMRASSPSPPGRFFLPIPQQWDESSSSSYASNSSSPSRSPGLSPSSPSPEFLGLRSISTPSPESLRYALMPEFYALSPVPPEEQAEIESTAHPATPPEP

“full length recombinant EZHIP WT, 6x-His-tagged (natural protein)” yielded an IC50 of PRC2-catalyzed methylation of oligonucleosomes, in vitro methyltransferase assay, EZHIP titrated of 50 nM.
